The assay deals with green fluorescent protein (GFP), EGFP expressed from pCAG-GFP [GFP: P42212]. Kind of assay: cell-based or functional assay.

As for “CRE-DOG (Cre-recombinase Dependent on GFP), GBP2+GBP7 combination: N-CreintG with C-CreintG”, the induction of recombination of a floxed luciferase reporter in 293T cells lay within 20 to 60 fold.

Values taken from patent US9949464.
